This series has as its system Escherichia coli TOP10. In words: shrunken log2 fold change of peptide-encoding DNA abundance (4.5 h post-induction vs induction); higher = less antimicrobial activity (less host growth inhibition). The conditions noted are these: time post-induction: 4.5 h; library: site-saturation at positions 5, 18, 19, 20.
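Note: peptides expressed intracellularly from a pBAD plasmid library in pooled LB shake-flask culture, induced with 0.3% L-arabinose, DNA abundance read by NGS, three biological replicates, DESeq2 with apeglm shrinkage.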

For the sequence RRIRSRPPRLPRPRPRPDVIPRP, the “shrunken log2 fold change” value is 0.0141.
As for RRIRIRPPRLPRPRPRPWHAPRP, the “shrunken log2 fold change” value is -0.0572.
Take RRIRHRPPRLPRPRPRPNCFPRP: the “shrunken log2 fold change” value worked out at 0.0486.
With RRIRGRPPRLPRPRPRPDIHPRP, the “shrunken log2 fold change” value was 0.439.
Take RRIRMRPPRLPRPRPRPTCMPRP: the “shrunken log2 fold change” value was found to be 0.262.
RRIRCRPPRLPRPRPRPDNMPRP: the “shrunken log2 fold change” value is -1.31.
On to RRIRHRPPRLPRPRPRPTVTPRP, for which the “shrunken log2 fold change” value was -0.0378.
As to RRIRTRPPRLPRPRPRPTTTPRP, the “shrunken log2 fold change” value turned out to be 0.168.
On to RRIRCRPPRLPRPRPRPDFIPRP, for which the “shrunken log2 fold change” value was -0.383.
For RRIRKRPPRLPRPRPRPAFGPRP, the “shrunken log2 fold change” value worked out at 0.564.
Under RRIRNRPPRLPRPRPRPKWYPRP stands -0.517; under RRIRFRPPRLPRPRPRPNEEPRP, -0.0458.
As to RRIRKRPPRLPRPRPRPSDMPRP, the “shrunken log2 fold change” value turned out to be 0.0199.
With RRIRVRPPRLPRPRPRPRKFPRP, the “shrunken log2 fold change” value stood at 0.0551.
Turning to RRIRARPPRLPRPRPRPWCYPRP, the “shrunken log2 fold change” value was -0.306.
Regarding RRIRMRPPRLPRPRPRPLEWPRP, the “shrunken log2 fold change” value stood at 0.31.
With RRIRQRPPRLPRPRPRPPNAPRP, the “shrunken log2 fold change” value is 0.285.
The result for RRIRHRPPRLPRPRPRPADLPRP reads -0.0314; that for RRIRQRPPRLPRPRPRPLGDPRP, 0.0938.
As to RRIRNRPPRLPRPRPRPAMLPRP, the “shrunken log2 fold change” value was -0.145.
The result for RRIRHRPPRLPRPRPRPHHKPRP reads -0.556; that for RRIRTRPPRLPRPRPRPRPKPRP, 0.303; that for RRIRERPPRLPRPRPRPQWDPRP, 0.0698.
Take RRIRPRPPRLPRPRPRPFRAPRP: the “shrunken log2 fold change” value was 0.116.
With RRIRKRPPRLPRPRPRPHMYPRP, the “shrunken log2 fold change” value was -0.131.
Consider RRIRYRPPRLPRPRPRPMCQPRP, for which the “shrunken log2 fold change” value is -0.394.
As to RRIRARPPRLPRPRPRPHPEPRP, the “shrunken log2 fold change” value came to 0.7.
The result for RRIRIRPPRLPRPRPRPQIQPRP reads -0.235; that for RRIRLRPPRLPRPRPRPDSDPRP, -0.0524.
On to RRIRKRPPRLPRPRPRPLHIPRP, for which the “shrunken log2 fold change” value is -0.172.
RRIRRRPPRLPRPRPRPQMNPRP: the “shrunken log2 fold change” value is -0.107.
With RRIRIRPPRLPRPRPRPPWAPRP, the “shrunken log2 fold change” value stood at 0.388.
Consider RRIRYRPPRLPRPRPRPAEAPRP, for which the “shrunken log2 fold change” value came to 0.0062.
For RRIRIRPPRLPRPRPRPWRYPRP, the “shrunken log2 fold change” value was -0.0701.
Regarding RRIRWRPPRLPRPRPRPPWWPRP, the “shrunken log2 fold change” value stood at 0.674.
The result for RRIRLRPPRLPRPRPRPQCVPRP reads 0.0615; that for RRIRRRPPRLPRPRPRPACRPRP, 0.456; that for RRIRTRPPRLPRPRPRPPVPPRP, 0.139.
As to RRIRQRPPRLPRPRPRPSIDPRP, the “shrunken log2 fold change” value is -0.607.
The result for RRIRKRPPRLPRPRPRPRWYPRP reads 0.275.
As for RRIRPRPPRLPRPRPRPYHRPRP, the “shrunken log2 fold change” value was -0.00884.
Turning to RRIRLRPPRLPRPRPRPKTAPRP, the “shrunken log2 fold change” value turned out to be 0.037.
Consider RRIRARPPRLPRPRPRPVFRPRP, for which the “shrunken log2 fold change” value stood at 0.143.
With RRIRCRPPRLPRPRPRPGIEPRP, the “shrunken log2 fold change” value was -0.0627.
Under RRIRKRPPRLPRPRPRPVTPPRP stands 0.307.
In the case of RRIRLRPPRLPRPRPRPKMHPRP, the “shrunken log2 fold change” value was 0.0307.
For the sequence RRIRMRPPRLPRPRPRPSICPRP, the “shrunken log2 fold change” value was -0.176.
As for RRIRGRPPRLPRPRPRPMAGPRP, the “shrunken log2 fold change” value was 0.0763.
Regarding RRIRSRPPRLPRPRPRPVWQPRP, the “shrunken log2 fold change” value was 0.168.
The result for RRIRTRPPRLPRPRPRPKQQPRP reads -0.0149.
As to RRIRGRPPRLPRPRPRPEPSPRP, the “shrunken log2 fold change” value came out at 1.47.
For the sequence RRIRSRPPRLPRPRPRPRCLPRP, the “shrunken log2 fold change” value was 0.0297.
Under RRIRFRPPRLPRPRPRPYEQPRP stands 0.00332.
RRIRTRPPRLPRPRPRPHTLPRP: the “shrunken log2 fold change” value was -0.792.
Turning to RRIRKRPPRLPRPRPRPCWIPRP, the “shrunken log2 fold change” value was -0.0557.
For RRIRYRPPRLPRPRPRPWQAPRP, the “shrunken log2 fold change” value was -0.0293.
The result for RRIRSRPPRLPRPRPRPGFYPRP reads -0.312; that for RRIRIRPPRLPRPRPRPGNSPRP, -1.05.
The result for RRIRNRPPRLPRPRPRPYPGPRP reads -0.123; that for RRIRLRPPRLPRPRPRPWDHPRP, -1.04; that for RRIRRRPPRLPRPRPRPARKPRP, 0.58.
As for RRIRMRPPRLPRPRPRPWREPRP, the “shrunken log2 fold change” value was determined as 0.189.
RRIRTRPPRLPRPRPRPKRFPRP: the “shrunken log2 fold change” value was -0.00233.
Regarding RRIRWRPPRLPRPRPRPYEWPRP, the “shrunken log2 fold change” value came to 0.0229.
RRIRFRPPRLPRPRPRPTHTPRP: the “shrunken log2 fold change” value came to 0.186.
The result for RRIRPRPPRLPRPRPRPNTCPRP reads -0.00653; that for RRIRCRPPRLPRPRPRPNVSPRP, 0.0773; that for RRIRDRPPRLPRPRPRPKTGPRP, -0.111.
With RRIRDRPPRLPRPRPRPWWFPRP, the “shrunken log2 fold change” value was -0.00226.
Consider RRIRIRPPRLPRPRPRPRCPPRP, for which the “shrunken log2 fold change” value amounted to 0.0321.
Under RRIRSRPPRLPRPRPRPMCEPRP stands -0.0274.
Under RRIRGRPPRLPRPRPRPGYWPRP stands 1.88.
Under RRIRGRPPRLPRPRPRPEMPPRP stands 1.48; under RRIRDRPPRLPRPRPRPICHPRP, 0.139; under RRIRKRPPRLPRPRPRPAEQPRP, 0.452.
For the sequence RRIRSRPPRLPRPRPRPAYPPRP, the “shrunken log2 fold change” value is 0.0454.
The result for RRIRMRPPRLPRPRPRPYQEPRP reads -0.0194; that for RRIRSRPPRLPRPRPRPLGVPRP, 0.0588.
Regarding RRIRGRPPRLPRPRPRPMDKPRP, the “shrunken log2 fold change” value is 0.378.
The result for RRIRGRPPRLPRPRPRPYSAPRP reads -0.29.
With RRIRVRPPRLPRPRPRPRRYPRP, the “shrunken log2 fold change” value was -0.0486.
As to RRIRSRPPRLPRPRPRPRDCPRP, the “shrunken log2 fold change” value was 0.686.
On to RRIRHRPPRLPRPRPRPTHNPRP, for which the “shrunken log2 fold change” value was -0.211.
As to RRIRERPPRLPRPRPRPWCLPRP, the “shrunken log2 fold change” value was -0.746.
Under RRIRDRPPRLPRPRPRPSHRPRP stands 0.102.
Regarding RRIRARPPRLPRPRPRPPLMPRP, the “shrunken log2 fold change” value worked out at 0.408.
Under RRIRVRPPRLPRPRPRPDRQPRP stands -0.215.
Turning to RRIRFRPPRLPRPRPRPHGQPRP, the “shrunken log2 fold change” value is -0.0526.
For the sequence RRIRPRPPRLPRPRPRPEIEPRP, the “shrunken log2 fold change” value amounted to 0.0922.
Regarding RRIRGRPPRLPRPRPRPFREPRP, the “shrunken log2 fold change” value was -0.21.
Consider RRIRMRPPRLPRPRPRPDCTPRP, for which the “shrunken log2 fold change” value is 2.27.

The record behind these values is the supplement of paper PMC9112550, “Optimization of the antimicrobial peptide Bac7 by deep mutational scanning” (BMC Biology, 2022).
